Values of other authors, collected in article PMC13598549.

Target: TEAD (Homo sapiens) (UniProt P28347)
UniProt P28347, sequence (P28347 whole entry): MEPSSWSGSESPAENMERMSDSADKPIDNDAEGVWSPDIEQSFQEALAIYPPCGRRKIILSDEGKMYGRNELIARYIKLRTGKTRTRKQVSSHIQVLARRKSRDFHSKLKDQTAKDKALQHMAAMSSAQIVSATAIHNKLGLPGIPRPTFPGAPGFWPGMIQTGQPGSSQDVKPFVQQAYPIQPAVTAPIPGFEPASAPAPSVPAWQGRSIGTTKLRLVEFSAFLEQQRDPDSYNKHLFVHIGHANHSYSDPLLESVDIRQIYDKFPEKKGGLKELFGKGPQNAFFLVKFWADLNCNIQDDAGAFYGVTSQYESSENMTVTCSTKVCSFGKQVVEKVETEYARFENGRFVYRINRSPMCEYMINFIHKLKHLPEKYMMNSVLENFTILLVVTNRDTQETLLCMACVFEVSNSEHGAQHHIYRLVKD

Kd: 0.04 µM
Substance: YAP (from UniProt P46937)
